{"source": "patent US20140199692A1", "target": "eukaryotic translation initiation factor eIF4E (endogenous, in lysates of human cell lines) (UniProt P06730)", "sequence (P06730 2-217 limits assumed)": "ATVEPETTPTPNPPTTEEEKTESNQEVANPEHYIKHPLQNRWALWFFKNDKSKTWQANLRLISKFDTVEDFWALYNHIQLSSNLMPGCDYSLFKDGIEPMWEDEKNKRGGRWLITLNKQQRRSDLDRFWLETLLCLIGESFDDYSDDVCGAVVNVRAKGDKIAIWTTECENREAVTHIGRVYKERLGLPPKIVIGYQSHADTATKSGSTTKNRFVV", "assay": "immunoprecipitation of eIF4E from nuclear lysates"}
{"substance": "mouse monoclonal anti-eIF4E Ab (BD Transduction Laboratories) (antibody)", "values": [{"measurement": "efficiency of IP", "result": "< 80", "unit": "%"}]}
